{
  "source": "the supplement of paper PMC11908140",
  "parents": {"B1": {"name": "library; numbered along this chain (parent)", "chain": "MRKPRAAVGSGHRKQAASQEGRQKHAKNNSQAKPSACDGLARQPEEVVLQASVSSYHLFRDVAEVTAFRGSLLSWYDQEKRDLPWRRRAEDEMDLDRRAYAVWVSEVMLQQTQVATVINYYTGWMQKWPTLQDLASASLEEVNQLWAGLGYYSRGRRLQEGARKVVEELGGHMPRTAETLQQLLPGVGRYTAGAIASIAFGQATGVVDGNVARVLCRVRAIGADPSSTLVSQQLWGLAQQLVDPARPGDFNQAAMELGATVCTPQRPLCSQCPVESLCRARQRVEQEQLLASGSLSGSPDVEECAPNTGQCHLCLPPSEPWDQTLGVVNFPRKASRKPPREESSATCVLEQPGALGAQILLVQRPNSGLLAGLWEFPSVTWEPSEQLQRKALLQELQRWAGPLPATHLRHLGEVVHTFSHIKLTYQVYGLALEGQTPVTTVPPGARWLTQEEFHTAAVSTAMKKVFRVYQGQQPGTCMGSKRSQVSSPCSRKKPRMGQQVLDNFFRSHISTDAHSLNSAAQ"}},
  "data": [
    {"variants_of": "B1", "test": "8OG:A repair function score (normalized; synonymous = 0, nonsense = -1) (normalized log-likelihood score); higher = more repair activity (WT-like)", "conditions": "with 8OG:A DNA repair reporter (GFP) in HEK-293 MUTYH KO cells", "procedure,_shortened": "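Per-tile Rosace fitness scores were converted to a normalized repair function score anchored on synonymous and nonsense distributions. That scale puts synonymous medians at 0 and nonsense medians at -1. Variants with starting counts under 300 counts per million were discarded. Input came from sorting viable mCherry+ MUTYH knockout HEK-293 cells, carrying lentiviral MUTYH cDNA NNN codon-scan libraries in 10 pg/ml doxycycline and an 8OG:A GFP repair reporter, into GFP+ and GFP− bins at 72 h, three replicates per tile, followed by tile amplicon sequencing.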", "values": [
      {"variant": "S510Q", "8OG:A repair function score": -0.053},
      {"variant": "T417H", "8OG:A repair function score": -0.254},
      {"variant": "T176R", "8OG:A repair function score": -0.102},
      {"variant": "I221L", "8OG:A repair function score": -0.449},
      {"variant": "R60A", "8OG:A repair function score": -0.0135},
      {"variant": "Q435E", "8OG:A repair function score": -0.132},
      {"variant": "S294A", "8OG:A repair function score": -0.012},
      {"variant": "D94N", "8OG:A repair function score": -0.0146},
      {"variant": "A203N", "8OG:A repair function score": -0.000873},
      {"variant": "P44I", "8OG:A repair function score": -0.165},
      {"variant": "S52A", "8OG:A repair function score": 0.00623},
      {"variant": "M462R", "8OG:A repair function score": -1.12},
      {"variant": "Y469P", "8OG:A repair function score": -0.718},
      {"variant": "P474D", "8OG:A repair function score": 0.00257},
      {"variant": "V62N", "8OG:A repair function score": 0.00416},
      {"variant": "A67H", "8OG:A repair function score": -0.0348},
      {"variant": "L241Y", "8OG:A repair function score": -0.893},
      {"variant": "G497F", "8OG:A repair function score": -0.0315},
      {"variant": "Q282F", "8OG:A repair function score": -0.021},
      {"variant": "K164G", "8OG:A repair function score": -0.431},
      {"variant": "S487Y", "8OG:A repair function score": 0.00217},
      {"variant": "N119T", "8OG:A repair function score": -0.0798},
      {"variant": "D96I", "8OG:A repair function score": -0.341},
      {"variant": "V438M", "8OG:A repair function score": -0.252},
      {"variant": "K127G", "8OG:A repair function score": -0.408},
      {"variant": "M108Y", "8OG:A repair function score": -0.819},
      {"variant": "A405K", "8OG:A repair function score": 0.0168},
      {"variant": "T308F", "8OG:A repair function score": -0.0849},
      {"variant": "G412A", "8OG:A repair function score": -0.236},
      {"variant": "Q113N", "8OG:A repair function score": -0.167},
      {"variant": "R163Q", "8OG:A repair function score": -0.143},
      {"variant": "F505L", "8OG:A repair function score": 0.0157},
      {"variant": "L325M", "8OG:A repair function score": -0.0835},
      {"variant": "S54D", "8OG:A repair function score": -0.029},
      {"variant": "I195C", "8OG:A repair function score": -0.59},
      {"variant": "Q111P", "8OG:A repair function score": -1.13},
      {"variant": "Q111E", "8OG:A repair function score": -1.24},
      {"variant": "Q252C", "8OG:A repair function score": -0.576},
      {"variant": "G188S", "8OG:A repair function score": -0.643},
      {"variant": "Q265D", "8OG:A repair function score": -0.156},
      {"variant": "G193S", "8OG:A repair function score": 0.0283},
      {"variant": "S296H", "8OG:A repair function score": -0.0357},
      {"variant": "N210M", "8OG:A repair function score": -0.923},
      {"variant": "H454G", "8OG:A repair function score": -0.0392},
      {"variant": "Y120Q", "8OG:A repair function score": -0.154},
      {"variant": "E342S", "8OG:A repair function score": -0.0341},
      {"variant": "W146S", "8OG:A repair function score": -0.39},
      {"variant": "E45P", "8OG:A repair function score": -0.0802},
      {"variant": "L158G", "8OG:A repair function score": -1.15},
      {"variant": "W146D", "8OG:A repair function score": -1.2},
      {"variant": "E413A", "8OG:A repair function score": -0.0523},
      {"variant": "T260V", "8OG:A repair function score": -0.0429},
      {"variant": "S153E", "8OG:A repair function score": -0.117},
      {"variant": "A334H", "8OG:A repair function score": 0.0495},
      {"variant": "L183K", "8OG:A repair function score": -0.0447},
      {"variant": "Y56H", "8OG:A repair function score": -0.00595},
      {"variant": "L516C", "8OG:A repair function score": 0.00795},
      {"variant": "P442Q", "8OG:A repair function score": 0.213},
      {"variant": "L290I", "8OG:A repair function score": 0.0122},
      {"variant": "V165L", "8OG:A repair function score": -0.0671},
      {"variant": "V242L", "8OG:A repair function score": -0.288},
      {"variant": "E140C", "8OG:A repair function score": -0.0271},
      {"variant": "N251C", "8OG:A repair function score": -0.884},
      {"variant": "A192P", "8OG:A repair function score": -1.17},
      {"variant": "K492F", "8OG:A repair function score": -0.0038},
      {"variant": "E178Y", "8OG:A repair function score": 0.00398},
      {"variant": "T417E", "8OG:A repair function score": 0.0158},
      {"variant": "R175S", "8OG:A repair function score": -0.0258},
      {"variant": "A245C", "8OG:A repair function score": -0.113},
      {"variant": "L448G", "8OG:A repair function score": -0.516},
      {"variant": "A513P", "8OG:A repair function score": -0.0105},
      {"variant": "Q388D", "8OG:A repair function score": 0.0946},
      {"variant": "A177E", "8OG:A repair function score": -0.368},
      {"variant": "S384R", "8OG:A repair function score": -0.115},
      {"variant": "Q499V", "8OG:A repair function score": 0.0113},
      {"variant": "S294Q", "8OG:A repair function score": -0.0283},
      {"variant": "E341S", "8OG:A repair function score": -0.0269},
      {"variant": "C216V", "8OG:A repair function score": -0.649},
      {"variant": "A253S", "8OG:A repair function score": -0.559},
      {"variant": "G297Q", "8OG:A repair function score": -0.0223},
      {"variant": "Q282R", "8OG:A repair function score": -0.0175},
      {"variant": "D224Y", "8OG:A repair function score": -0.939},
      {"variant": "I221S", "8OG:A repair function score": -0.991},
      {"variant": "Q472F", "8OG:A repair function score": 0.018}
    ]}
  ]
}
